This is an account of results in patent publication US20020197647A1 (ROCKEFELLER UNIVERSITY, published 2002).

This assay addresses T1, c-Jun residues 1-104 (Rattus norvegicus (Rat), UniProt P17325 1-101, labeled with 35S by in vitro translation).
T1 construct: In vitro translated fragment; also called N-terminal region of c-Jun
T1 sequence: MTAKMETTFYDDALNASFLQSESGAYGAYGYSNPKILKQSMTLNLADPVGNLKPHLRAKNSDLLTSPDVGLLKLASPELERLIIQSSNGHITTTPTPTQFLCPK
In words: GST pull-down of 35S-labeled in vitro translated c-Jun fragment.

B1: GST-Stat3 (1-154) (other)
chain: MAQWNQLQQLDTRYLKQLHQLYSDTFPMELRQFLAPWIESQDWAYAASKESHATLVFHNLLGEIDQQYSRFLQESNVLYQHNLRRIKQFLQSRYLEKPMEIARIVARCLWEESRLLQTAATAAQQGGQANHPTAAVVTEKQQMLEQHLQDVRKR
notes: GST is placed N-terminal because of the pGEX vector; not shown: Glutathione S-transferase (GST) fusion partner of vector pGEX-5X-1 (Pharmacia)
B1: the binding result is on record as “no binding”.
